Target: T1, human cathepsin L (human)
T1 construct: cathepsin L, human, bought from Calbiochem; active enzyme used at 0.3 nM; source: bought: Calbiochem
Assay: enzyme inhibition assay (residual activity on the fluorogenic substrate Z-Phe-Arg-MCA); cathepsin B or L (0.3 nM) incubated 5 min at 37°C with varied inhibitor in 100 mM sodium acetate pH 5.5, 2.5 mM DTT; substrate 0.01 mM; triplicate; Ki(app) by non linear regression (GraFit), Ki by Morrison's procedure
Conditions: both partners purified

B1: Oryzacystatin-1 N-terminal deletion (NΔ) (natural protein)
chain: MSSDGGPVGNENDLHLVDLARFAVTEHNKKANSLLEFEKLVSVKQQVVAGTLYYFTIEVKEGDAKKLYEAKVWEKPWMDFKELQEFKPVDASANA
For B1, the Ki was 5.66 nM.

Reference: paper PMC2959088, “Molecular determinants of improved cathepsin B inhibition by new cystatins obtained by DNA shuffling” (BMC Structural Biology, 2010)
